Results on one substance are retold here after patent US20100047805.

Holding throughout (assay): cell_activity
Series [1] relates to 8196zDR D467A D483R,D467A (FokI) (synthetic construct). As to conditions: TI with 8267RD; NHEJ 0.0.
Series [2] has as its system 8196zDR D450N D483R,D450N (FokI) (synthetic construct). As to conditions: TI with 8267RD; NHEJ 0.0.
Series [3] concerns 8196zKK D467A E490K,I538K,D467A (FokI) (synthetic construct). As to conditions: TI with 8267EL; NHEJ 0.0.
In series [4] the test system is 8267RD R487D (FokI) (synthetic construct). As to conditions: NHEJ with 8196zDR; TI 28.4%.
The subject of series [5] is 8196zKK (ZFN-R-KK) E490K,I538K (FokI) (synthetic construct). To be noted: NHEJ with 8267EL; TI 29.4%; K562.
The test system of series [6] is 8196zDR D483R (FokI) (synthetic construct). To be noted: NHEJ with 8267RD; TI 28.4%.

On to CCR5 endogenous locus (K562), for which the activity is 0.7% in series [1]; 1.2% in series [2]; 1.1% in series [3]; 36.7% in series [4]; 54.3% in series [5]; 36.7% in series [6].
